Source: patent US20050074855A1 (Regeneron, published 2005)

B1: 8F10 ScFv-Fc (Fc fusion)
chain: QVQLQQSGAELAKPGASVKMSCKASGYTFTTYWMHWIKQRPGQGLEWIGYINPSTGYSEFNQKFNDKATLTADRSSSTAYMQLNSLTSEDSAVYYCARDAYYGNYEDYWGQGTTLTVSSAGGGGSGGGGSGGGGSSIVMTQTPKFLLVSAGDRVTITCKASQSVSYDVAWYQQKPGQSPKLLIYYESNRYSGVPDRFTGSGNGTDFTFTISTVQAEDLAVYFCQQVYTSPYTFGGGTKLEIKR
notes: how it was built is not described; not shown: Fc domain of human IgG1
B2: 8F10.8F10 ScFv-ScFv-Fc (Fc fusion)
chain: QVQLQQSGAELAKPGASVKMSCKASGYTFTTYWMHWIKQRPGQGLEWIGYINPSTGYSEFNQKFNDKATLTADRSSSTAYMQLNSLTSEDSAVYYCARDAYYGNYEDYWGQGTTLTVSSAGGGGSGGGGSGGGGSSIVMTQTPKFLLVSAGDRVTITCKASQSVSYDVAWYQQKPGQSPKLLIYYESNRYSGVPDRFTGSGNGTDFTFTISTVQAEDLAVYFCQQVYTSPYTFGGGTKLEIKRGGGGSGGGGSGGGGSQVQLQQSGAELAKPGASVKMSCKASGYTFTTYWMHWIKQRPGQGLEWIGYINPSTGYSEFNQKFNDKATLTADRSSSTAYMQLNSLTSEDSAVYYCARDAYYGNYEDYWGQGTTLTVSSAGGGGSGGGGSGGGGSSIVMTQTPKFLLVSAGDRVTITCKASQSVSYDVAWYQQKPGQSPKLLIYYESNRYSGVPDRFTGSGNGTDFTFTISTVQAEDLAVYFCQQVYTSPYTFGGGTKLEIKR
notes: Monospecific tandem scFv-Fc; not shown: Fc domain of human IgG1

Biological target: T1, human IL-6 (human, UniProt P05231 30-212)
T1 construct: Soluble analyte injected at 1.25, 2.5 and 5 nM in the BIAcore assay; also called hIL-6
T1 sequence (P05231 30-212 limits assumed): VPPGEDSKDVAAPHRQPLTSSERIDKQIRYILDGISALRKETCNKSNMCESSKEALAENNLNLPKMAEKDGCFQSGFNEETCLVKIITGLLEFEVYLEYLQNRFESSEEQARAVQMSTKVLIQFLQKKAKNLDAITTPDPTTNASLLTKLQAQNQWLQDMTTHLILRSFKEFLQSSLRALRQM
Experiment: SPR (BIAcore 2000), fusion captured by anti-human Fc, hIL-6 injected
Procedure: Affinity Measurements. The affinity of the various scFv-scFv-Fc fusion proteins for human IL-6 was measured using a BIAcore 2000. […] Kinetic analysis using BIAevaluation software was performed to obtain the association and dissociation rate constants.

Row | Binder | Kd [nM]
1 | B1 | 0.43
2 | B2 | 0.296
